From article doi:10.1101/2024.10.29.620886 come the findings set out here.

The target of assay [1] is CR57 canonical diabody with a five amino acid linker 'GGGGS' between the VH and VL domains (human). In words: SEC.
In assay [2] the target is Imdevimab diabody (human). In words: SEC. For orientation: Size exclusion chromatography separates by hydrodynamic size, large species first.

“CR57 canonical diabody with a five amino acid linker 'GGGGS' between the VH and VL domains” had a stoichiometry N in assay [1] of 2.
As to Imdevimab diabody, the stoichiometry N in assay [2] stood at 2.

As a reminder, the stoichiometry N is the number of molecules, sites or subunits per partner or assembly.
